This note sets out measurements from US20050123936A1, “Method, composition, and kit to design, evaluate, and/or test compounds that modulate regulatory factor binding to nucleic acids” (priority 2003, published 2005).

Series [1] has as its target T1, Extradenticle (Exd), homeodomain plus extended fourth helix (Drosophila) (UniProt P40427).
T1 sequence: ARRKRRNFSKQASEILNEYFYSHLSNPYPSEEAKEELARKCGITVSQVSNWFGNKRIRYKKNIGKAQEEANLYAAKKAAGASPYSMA
The series can be described thus: EMSA. The conditions noted are these: apparent, with polyamide-FYPWM conjugate. On the technique in general: A gel shift assay detects complexes by their altered migration in electrophoresis.

Series [2] concerns the target TGGTCA matched site on 250-bp EcoRI/PvuII restriction fragment from plasmid pDEH9. Nature of the series: Quantitative DNase I footprint titration, matched site. It is filed as binding. To be noted: 12 h at 22° C., TKMC buffer pH 7.0, read-out: Equilibrium Dissociation Constants Kd, TGGTCA. The protocol:
(§1) Quantitative DNaseI footprinting can be used to determine the equilibrium association constants for binding to match and mismatch sites. Footprinting experiments are generally performed on 3′- and/or 5′-^32P end restriction fragments derived from plasmids. 3′-shifted cleavage patterns are consistent with location of the polyamide in the minor groove. Typical reaction conditions are: 10 mM Tris-HCl, 10 mM KCl, 10 mM MgCl2, 5 mM CaCl2, pH 7.0, and 22° C. See Brenowitz et al. (1986). Methods Enzymol. 130:132-181; Fox & Waring (1984) Nucleic Acids Res. 12:9271-9285; and Brenowitz et al. (1986) Proc. Natl. Acad. Sci. U.S.A. 83: 8462-8466.
DNase I Footprinting: Dissociation constants for the DNA binding of compounds 1, 2 and 3 were obtained following published protocols. All reactions were carried out in 400 μL total volume employing 20 kcpm of a 3′-radiolabelled 250-bp restriction fragment from the plasmid pDEH9 (FIG. 1a) (SEQ. ID. NO: 4). […]
FIGS. 1b, 1c, and 1d are quantitative DNAse I footprint titration experiments for compounds 1, 2 and 3 on the 3′^−32 P-labeled 250-bp EcoRI/PvuII restriction fragment from the plasmid pDEH9. […]
The DNA-binding properties of the compounds 1-3 were investigated by quantitative DNase 1 footprinting assays. […]

Series [3] concerns TGGCCA mismatch site on 250-bp EcoRI/PvuII restriction fragment from plasmid pDEH9. Nature of the series: Quantitative DNase I footprint titration, mismatch site TGGCCA. In kind it is binding. As for the experimental part: as §1
(§2) DNase I Footprinting: Dissociation constants for the DNA binding of compounds 1, 2 and 3 were obtained following published protocols. All reactions were carried out in 400 μL total volume employing 20 kcpm of a 3′-radiolabelled 250-bp restriction fragment from the plasmid pDEH9 (FIG. 1a) (SEQ. ID. NO: 4). No carrier DNA was used in the equilibration, and the solutions were allowed to equilibrate for 12 h at 22° C. in TKMC buffer (10 mM TRIS, 10 mM KCl, […], 5 mM CaCl2 pH 7.0) prior to the DNase I digestion. Reaction products (8 kcpm) were resolved on denaturing 8% polyacrylamide sequencing gels run at 55 W.
(§3) FIGS. 1b, 1c, and 1d are quantitative DNAse I footprint titration experiments for compounds 1, 2 and 3 on the 3′^−32 P-labeled 250-bp EcoRI/PvuII restriction fragment from the plasmid pDEH9. Lane 1: Intact DNA. Lane 2: A-reaction. Lane 3: G-reaction. Lane 4: DNAse 1 standard.
(§4) The DNA-binding properties of the compounds 1-3 were investigated by quantitative DNase 1 footprinting assays. The equilibrium binding constants of each of the compounds for a matched versus three single base pair mismatch sites is compiled in Table 1. The lower strand sequence is shown in the header. Mismatched base pairs are underlined. The residue under the YPWM peptide is in bold. Relative specificities are given in square brackets.

Series [4] has as its system TGGGCA mismatch site on 250-bp EcoRI/PvuII restriction fragment from plasmid pDEH9. Nature of the series: Quantitative DNase I footprint titration, mismatch site TGGGCA. In kind it is binding. As for the experimental part: as §1, §2, §3, §4
For series [5], the system named is AGCTCA mismatch site on 250-bp EcoRI/PvuII restriction fragment from plasmid pDEH9. The series can be described thus: Quantitative DNase I footprint titration, mismatch site AGCTCA. It is filed as binding. As for the experimental part: as §1, §2, §3, §4
Series [6] deals with T2, extradenticle (Exd) protein (residues 238-324) (Drosophila melanogaster, UniProt P40427).
T2 construct: comprising the homeodomain and the extended fourth helix (residues 238-324); made in house
T2 sequence (P40427 238-324): T1 sequence
Nature of the series: EMSA: recruitment of Exd to its cognate DNA site by polyamides 1-3. In kind it is binding. To be noted: saturating 50 nM compound; Exd 0-100 nM; listed as compound 3. The source says: Protein expression: Drosophila extradenticle (Exd) protein comprising the homeodomain and the extended fourth helix (residues 238-324), as well as ultrabithorax (Ubx) protein homeodomain (residues 233-313 of the Ubx isoform IVa) were expressed and purified after Passner & Aggarwal. The purified proteins Exd and Ubx were used for EMSA studies as described below.
For the templates, the DNA oligonucleotides depicted in FIGS. 2a, 2b, 2c, and 2d were used, SEQ. ID NOS: 5, 6, 7, and 8, respectively. The DNA upper strand was annealed with the respective matching lower strand and both strands were 5′-labeled with γ-^32P-ATP and polynucleotide kinase, using standard procedures.
Gel-shift experiments: The master mix contained 50% BSA/50% glycerol, reaction buffer (150 mM potassium glutamate, 50 mM HEPES pH 7.0, 1 mM DTT, and 5′-end labeled DNA (^32P) The final concentrations in the samples were 100 ng/μL BSA and 10% glycerol. Polyamides were kept in subdued lighting whenever possible. Upon addition of the polyamide to 1 pM DNA, the samples were incubated at 25 °C. for 30 minutes in a 20 μL reaction. Next, Exd was added to the samples and incubated for 1 hour at 4° C. A 9% acrylamide/3% glycerol gel was pre-run for 15 min prior to loading. In each lane 15 μL of a 20 μL reaction were loaded while the gel was running to prevent the samples from being diluted. The gels were run at 4° C./185 V. Gels were dried, exposed to a phosphorimager screen, and visualized using a Molecular Dynamics phosphorimager.
FIGS. 3a and 3b: EMSA studies with polyamides 1-3, Exd and Ubx. In FIG. 3a, each polyamide binds and decreases the mobility of free DNA (lanes 2-18). […] In lanes 2-6,8-12, 14-18, Exd was added in following concentrations: 0, 3, 10, 30, 100 nM. Lanes 19 and 20 contained DNA bearing the Exd-Ubx binding site that was used in X-ray crystal structure determination (see methods above for sequence). In the reaction shown in lane 20, 275 nM Ubx and 30 nM Exd were incubated with DNA. […]

Series [7] addresses T3, Exd (Drosophila melanogaster, UniProt P40427).
T3 construct: comprising the homeodomain and the extended fourth helix (residues 238-324); made in house
T3 sequence (P40427 238-324): T1 sequence
Nature of the series: Example 7 EMSA: recruitment of Exd by linker compounds. In kind it is binding. To be noted: for ability to recruit Exd: 4° C.; for positioning of the test compound with respect to its hydrophobic docking site on the surface of Exd: short linkers (<4 Å when fully extended). The protocol:
The assays were performed with 50 nM of the conjugate pre-incubated with target DNA (thus to bind the anchor moiety to the target nucleic acid) followed by the addition and incubation with Exd.
To determine the effects of longer linker on binding, the ability of compounds using linkers 1, 2 and 4 to recruit Exd at three different temperatures was investigated.

In series [8] the target is T4, Drosophila extradenticle (Exd) protein comprising the homeodomain and the extended fourth helix (residues … (Drosophila, UniProt P40427 238-324)).
T4 sequence (looked up): T1 sequence
The series can be described thus: EMSA, Exd on DNA with and without compound 2. The protocol:
(§5) The gels were run at 4° C./185 V. Gels were dried, exposed to a phosphorimager screen, and visualized using a Molecular Dynamics phosphorimager.
(§6) A 47-base-pair duplex DNA with one cognate site was incubated with saturating concentrations (50 nM) of each compound.

For series [9], the target named is T4, Drosophila extradenticle (Exd) protein …. The series can be described thus: EMSA, compared with Exd on the Ubx-DNA complex. As for the experimental part:
(§7) Upon addition of the polyamide to 1 pM DNA, the samples were incubated at 25 °C. for 30 minutes in a 20 μL reaction. […] A 9% acrylamide/3% glycerol gel was pre-run for 15 min prior to loading. In each lane 15 μL of a 20 μL reaction were loaded while the gel was running to prevent the samples from being diluted. The gels were run at 4° C./185 V. Gels were dried, exposed to a phosphorimager screen, and visualized using a Molecular Dynamics phosphorimager.
as §6

Series [10] shares this target. Nature of the series: EMSA, recruitment of Exd to its cognate DNA site by DNA-bound compound 2 compared with Ubx. As for the experimental part: as §7, §6
Series [11] has the same target. Nature of the series: EMSA, Exd titrated on the DNA/compound 2 binary complex (ternary complex), 4 °C; Exd (residues 238-324) on the DNA/compound 2 complex, EMSA. The protocol: as §5, §6
Series [12] shares this target. Nature of the series: EMSA (gel shift), 32P-labelled duplex DNA pre-bound with 50 nM compound 3, Exd titrated, 4 °C. As for the experimental part:
as §7, §6

Setting [13] is: relative to matched site TGGTCA.

“Also recorded” adds a separate entry of the source. Ends that are not written are not given here.

Regarding “50 bp duplex with single optimal polyamide site and adjacent Exd site (Example 7)”, the Kd is 0.6 nM in series [1] (linker 1 (PEG), 4 C, much reduced at higher temperature) and 0.08 nM in series [1] (linker 4, 4 C, less than 5-fold decrease at 37 C).

On to Cmpd 3 (FYPAAKG), for which the Kd in [2] is 0.86 ± 0.32 nM; in series [3] (single base pair mismatch site, 22° C., TKMC buffer, read-out: Equilibrium Dissociation Constants Kd, TGGCCA), 12 ± 5 nM; in series [4] (single base pair mismatch site, 22° C., TKMC buffer, read-out: Equilibrium Dissociation Constants Kd, TGGGCA), at least 0.1 nM; in [5] (single base pair mismatch site, 22° C., TKMC buffer, read-out: Equilibrium Dissociation Constants Kd, AGCTCA) it was 14 ± 5 nM. In series [3] (setting [13]), the “Relative specificity (square brackets), TGGCCA” value turned out to be 14. Further, the “Relative specificity (square brackets), TGGGCA” value in [4] (setting [13]) came to 116. Also, the “Relative specificity (square brackets), AGCTCA” value in series [5] (setting [13]) was 16. For the same molecule, the “ability to recruit Exd to its cognate DNA site (Exd binding)” value in series [6] was “No binding was observed; also recorded: Neither compound 3 nor 1 showed any ability to recruit Exd”. The “ability to stabilize Exd binding to the adjacent cognate DNA site (TGAT)” value in series [7] (50 nM conjugate pre-incubated with target DNA, data not shown) was “Neither the parent polyamide lacking the YPWM hook, nor the polyamide bearing an altered hook (FYPAAK) (SEQ. ID. NO: 14) was able to stabilize Exd binding”.

For the molecule “Linker 1: Example 7 polyamide-FYPWM conjugate with linker 1, defined 28-atom polyethylene glycol linker, ~33 Å (FYPWMK; also: conjugated to polyamide via linker 1)”, the “ability to recruit Exd” value in series [7] was “recruit Exd effectively”. Moreover, in series [7] (higher temperatures (23° C., 37° C.)), the “binding affinity (Exd recruitment)” value is “dramatically reduced binding affinity”.

Turning to “Linker 2: Example 7 polyamide-FYPWM conjugate with linker 2, 10-atom linker, ~11 Å (FYPWMK; also: conjugated to polyamide via linker 2)”, the “ability to recruit Exd” value in series [7] was “recruit Exd effectively”.

Regarding “Linker 4: Example 7 polyamide-FYPWM conjugate with linker 4, 7-atom linker, ~7 Å (FYPWMK; also: conjugated to polyamide via linker 4)”, the “ability to recruit Exd” value in [7] is recorded as “recruit Exd effectively”.

Regarding “Linker 6: Example 7 polyamide-FYPWM conjugate with linker 6, no lysine residue (not fully specified (C-terminus); also: joined via linker 7 (no lysine) to hairpin polyamide)”, the “ability to recruit Exd in comparison to the compound using linker 5” value in series [7] (absence of the lysine residue) is listed as “did not appreciably alter”.

On to “Linker 7: Example 7 polyamide-FYPWM conjugate with linker 7, no lysine residue (also: conjugated to polyamide via linker 7)”, for which, in [7], the “positioning of the test compound with respect to its hydrophobic docking site on the surface of Exd” value was “do not optimally position the test compound”.

For “Linker 8: Example 7 polyamide-FYPWM conjugate with linker 8, lysine linker, ~2.5 Å (FYPWMK; also: conjugated to polyamide via linker 8)”, in series [7], the “positioning of the test compound with respect to its hydrophobic docking site on the surface of Exd” value was “do not optimally position the test compound”.

B1: Compound 2: hairpin polyamide 1 conjugated to Ac-Phe-Tyr-Pro-Trp-Met-Lys-Gly- (peptide)
peptide: Ac-FYPWMKG
modifications: not fully specified (C-terminus); printed as Ac-Phe-Tyr-Pro-Trp-Met-Lys-Gly-; also: C-terminal Gly amide-bonded to propylamine side chain of polyamide 1
notes: Peptide-polyamide conjugate; The peptide carries the Hox YPWM motif; also called conjugate 2; polyamide 2
In the case of B1, in series [8], the “fold improvement of the affinity of Exd for its cognate site against DNA alone” value was at least 200 fold. In series [9], the “fold of Kd of Exd against that for the DNA-Ubx complex” value is 2 fold. In addition, the “fold lower concentration required to recruit Exd, against its natural Hox partner (Ubx)” value in [10] was found to be 20 fold. The Kd in series [11] came to 4.4 nM.

B2: Compound 3: hairpin polyamide 1 conjugated to Ac-Phe-Tyr-Pro-Ala-Ala-Lys-Gly- (peptide)
peptide: Ac-FYPAAKG
modifications: not fully specified (C-terminus); printed as Ac-Phe-Tyr-Pro-Ala-Ala-Lys-Gly-; also: C-terminal Gly amide-bonded to propylamine side chain of polyamide 1
notes: Non-functional (Trp-Met to Ala-Ala) control conjugate; also called conjugate 3; polyamide 3
B2: in series [12], the binding result is given as “no binding (tested: 100 nM)”.
